Experimental data taken from the supplement of paper PMC9112550, “Optimization of the antimicrobial peptide Bac7 by deep mutational scanning” (BMC Biology, 2022).

test system: Escherichia coli TOP10; assay: shrunken log2 fold change of peptide-encoding DNA abundance (4.5 h post-induction vs induction); higher = less antimicrobial activity (less host growth inhibition); details: time post-induction: 4.5 h; library: site-saturation at positions 5, 18, 19, 20
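Also: peptides expressed intracellularly from a pBAD plasmid library in pooled LB shake-flask culture, induced with 0.3% L-arabinose, DNA abundance read by NGS, three biological replicates, DESeq2 with apeglm shrinkage.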

RRIRLRPPRLPRPRPRPNMGPRP and RRIRDRPPRLPRPRPRPSVKPRP are within 0.2 log units of each other in “shrunken log2 fold change” value: -0.25 for the first, -0.256 for the second.

Compared with RRIRCRPPRLPRPRPRPCSAPRP, RRIRKRPPRLPRPRPRPRFEPRP is higher in “shrunken log2 fold change” value: -0.277 for the first, 0.43 for the second.

RRIRVRPPRLPRPRPRPDKAPRP and RRIRVRPPRLPRPRPRPDTIPRP are within 0.2 log units of each other in “shrunken log2 fold change” value: -0.0129 for the first, -0.00658 for the second.

First: RRIRLRPPRLPRPRPRPVWGPRP
Second: RRIRDRPPRLPRPRPRPFYYPRP
The “shrunken log2 fold change” value of the first is higher: 0.0435 for the first, -0.899 for the second.

RRIRPRPPRLPRPRPRPMPCPRP and RRIRGRPPRLPRPRPRPYTFPRP are within 0.2 log units of each other in “shrunken log2 fold change” value: 0.0941 for the first, 0.151 for the second.

First: RRIRKRPPRLPRPRPRPGDFPRP
Second: RRIRCRPPRLPRPRPRPQFVPRP
The “shrunken log2 fold change” value of the first is higher: 0.18 for the first, -0.419 for the second.

RRIRLRPPRLPRPRPRPPVNPRP and RRIRMRPPRLPRPRPRPNFKPRP are within 0.2 log units of each other in “shrunken log2 fold change” value: 0.168 for the first, -0.0166 for the second.

RRIRYRPPRLPRPRPRPPETPRP and RRIRGRPPRLPRPRPRPHSVPRP are within 0.2 log units of each other in “shrunken log2 fold change” value: -0.0226 for the first, -0.0536 for the second.

Compared with RRIRRRPPRLPRPRPRPVSQPRP, RRIRMRPPRLPRPRPRPQETPRP is lower in “shrunken log2 fold change” value: 0.264 for the first, -0.00161 for the second.

Going from RRIRDRPPRLPRPRPRPAGDPRP to RRIRKRPPRLPRPRPRPHWCPRP, the “shrunken log2 fold change” value rises from 0.523 to 1.98.

Compared with RRIRDRPPRLPRPRPRPGCVPRP, RRIRWRPPRLPRPRPRPTCHPRP is lower in “shrunken log2 fold change” value: 0.616 for the first, 0.228 for the second.

Compared with RRIRWRPPRLPRPRPRPTTYPRP, RRIRMRPPRLPRPRPRPGMTPRP is higher in “shrunken log2 fold change” value: -0.187 for the first, 1.47 for the second.

First: RRIRRRPPRLPRPRPRPGKPPRP
Second: RRIRIRPPRLPRPRPRPIMNPRP
The “shrunken log2 fold change” value of the first is higher: 0.293 for the first, -1.27 for the second.

First: RRIRTRPPRLPRPRPRPTWGPRP
Second: RRIRYRPPRLPRPRPRPTSHPRP
The “shrunken log2 fold change” value of the first is higher: 0.31 for the first, -0.611 for the second.

First: RRIRMRPPRLPRPRPRPSNVPRP
Second: RRIRGRPPRLPRPRPRPQAGPRP
The “shrunken log2 fold change” value of the first is lower: -0.259 for the first, 0.695 for the second.

Compared with RRIRWRPPRLPRPRPRPRRFPRP, RRIRNRPPRLPRPRPRPCGIPRP is lower in “shrunken log2 fold change” value: 0.269 for the first, -0.138 for the second.

RRIRSRPPRLPRPRPRPASNPRP and RRIRPRPPRLPRPRPRPIGKPRP are within 0.2 log units of each other in “shrunken log2 fold change” value: -0.101 for the first, -0.156 for the second.

RRIRHRPPRLPRPRPRPSKRPRP and RRIRTRPPRLPRPRPRPQVSPRP are within 0.2 log units of each other in “shrunken log2 fold change” value: 0.0594 for the first, -0.0699 for the second.

RRIRKRPPRLPRPRPRPYMMPRP and RRIRARPPRLPRPRPRPKYYPRP are within 0.2 log units of each other in “shrunken log2 fold change” value: -0.103 for the first, -0.179 for the second.

Compared with RRIRHRPPRLPRPRPRPVRCPRP, RRIRYRPPRLPRPRPRPSYDPRP is lower in “shrunken log2 fold change” value: 0.592 for the first, -0.442 for the second.

Going from RRIRGRPPRLPRPRPRPTLFPRP to RRIRFRPPRLPRPRPRPWFKPRP, the “shrunken log2 fold change” value falls from 0.824 to -0.537.

RRIRGRPPRLPRPRPRPCSHPRP and RRIRPRPPRLPRPRPRPCLTPRP are within 0.2 log units of each other in “shrunken log2 fold change” value: -0.112 for the first, -0.0809 for the second.

First: RRIRKRPPRLPRPRPRPQIHPRP
Second: RRIRGRPPRLPRPRPRPMGRPRP
The “shrunken log2 fold change” value of the first is lower: 0.0287 for the first, 0.28 for the second.

First: RRIRIRPPRLPRPRPRPKVIPRP
Second: RRIRVRPPRLPRPRPRPHDTPRP
The “shrunken log2 fold change” value of the first is higher: 0.0457 for the first, -0.212 for the second.

RRIRMRPPRLPRPRPRPQNQPRP and RRIRYRPPRLPRPRPRPRMFPRP are within 0.2 log units of each other in “shrunken log2 fold change” value: -0.183 for the first, -0.306 for the second.

First: RRIRVRPPRLPRPRPRPYHDPRP
Second: RRIRKRPPRLPRPRPRPMPTPRP
The “shrunken log2 fold change” value of the first is lower: -0.182 for the first, 0.0822 for the second.

Going from RRIRWRPPRLPRPRPRPDQWPRP to RRIRQRPPRLPRPRPRPWYFPRP, the “shrunken log2 fold change” value falls from 0.399 to -0.289.

Compared with RRIRNRPPRLPRPRPRPFVWPRP, RRIRHRPPRLPRPRPRPYSFPRP is lower in “shrunken log2 fold change” value: -0.0187 for the first, -0.299 for the second.

RRIRLRPPRLPRPRPRPISNPRP and RRIRQRPPRLPRPRPRPMNNPRP are within 0.2 log units of each other in “shrunken log2 fold change” value: -0.17 for the first, -0.2 for the second.

RRIRIRPPRLPRPRPRPFGPPRP and RRIRRRPPRLPRPRPRPTFIPRP are within 0.2 log units of each other in “shrunken log2 fold change” value: -0.189 for the first, -0.0768 for the second.

Compared with RRIRWRPPRLPRPRPRPMNGPRP, RRIRTRPPRLPRPRPRPGGEPRP is higher in “shrunken log2 fold change” value: -0.131 for the first, 0.443 for the second.

Compared with RRIRERPPRLPRPRPRPVIHPRP, RRIRLRPPRLPRPRPRPIKHPRP is lower in “shrunken log2 fold change” value: -0.106 for the first, -0.821 for the second.

RRIRFRPPRLPRPRPRPFQEPRP and RRIRPRPPRLPRPRPRPKGYPRP are within 0.2 log units of each other in “shrunken log2 fold change” value: -0.00353 for the first, -0.13 for the second.

Going from RRIRTRPPRLPRPRPRPGAEPRP to RRIRFRPPRLPRPRPRPFEVPRP, the “shrunken log2 fold change” value falls from 0.25 to -0.571.

Going from RRIRMRPPRLPRPRPRPEPTPRP to RRIRARPPRLPRPRPRPEVKPRP, the “shrunken log2 fold change” value falls from 2.58 to 0.123.

Going from RRIRRRPPRLPRPRPRPYNRPRP to RRIRIRPPRLPRPRPRPPSRPRP, the “shrunken log2 fold change” value rises from -0.276 to 0.231.

Compared with RRIRERPPRLPRPRPRPIYKPRP, RRIRRRPPRLPRPRPRPALYPRP is higher in “shrunken log2 fold change” value: -0.305 for the first, 0.225 for the second.

With RRIRERPPRLPRPRPRPGIDPRP the “shrunken log2 fold change” value was -0.14.
